The assay addresses CD20, on SUP-B15 CD20+ cells (UniProt P11836). The assay is described as follows: cell-based or functional assay.
Chain of UniProt P11836 (P11836 whole entry): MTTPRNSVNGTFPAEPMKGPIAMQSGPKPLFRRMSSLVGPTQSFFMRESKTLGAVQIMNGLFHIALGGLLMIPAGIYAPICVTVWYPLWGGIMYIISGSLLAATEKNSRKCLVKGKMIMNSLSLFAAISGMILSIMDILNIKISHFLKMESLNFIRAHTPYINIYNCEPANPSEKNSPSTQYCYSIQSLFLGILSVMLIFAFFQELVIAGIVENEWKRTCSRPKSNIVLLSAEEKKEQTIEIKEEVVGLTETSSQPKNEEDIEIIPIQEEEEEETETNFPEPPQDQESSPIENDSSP

For the substance rituximab (antibody), the ADCC by polyclonal BCMA.CAR t-haNK cells (quadracistronic) was 60% and the ADCC by polyclonal BCMA.CAR t-haNK cells (tricistronic) is 55%.

The values are drawn from patent US20230172982A1.
